Consider 4 molecules from PMC6172220, “Calcineurin B homologous protein 3 binds with high affinity to the CHP binding domain of the human sodium/proton exchanger NHE1” (Scientific Reports, 2006).

Values joined by “and” are separate entries in the source; they are usually repeats but may differ in a detail not shown here. Identical values can stand only once.

Broadly, the Kd is the equilibrium constant for the complex coming apart. What is called stoichiometry N is the number of molecules, sites or subunits per partner or assembly.

Sequences and labels used below:
B1: MBP-CBD: CHP-binding region of human NHE1 (residues 503-545) fused to maltose-binding protein at its amino-terminus (domain or fragment, UniProt P19634 503-545, looked up)
chain: VDLLAVKKKQETKRSINEEIHTQFLDHLLTGIEDICGHYGHHH
notes: also called MBP-CBD^NHE1; NHE1-CBD; source: E. coli BL21 (DE3), purified (IMAC, SEC on Superdex 200); not shown: MBP, N-terminal, kept; His8, C-terminal, kept
B2: MBP-CBD: CHP-binding region of human NHE1 (residues 503-545) fused to maltose-binding protein (domain or fragment, UniProt P19634 503-545, looked up)
chain: B1 chain
notes: The TEV site is printed without Tyr; No site for removal of the C-terminal His8 is described; also called MBP-CBD^NHE1; NHE1-CBD; source: E. coli BL21 (DE3), purified (IMAC, SEC); not shown: MBP (E. coli malE; UniProtKB P0AEX9 residues 27-393), N-terminal, kept
B3: human calcineurin B homologous protein 3 (CHP3), hexa-histidine tagged (natural protein, UniProt Q96BS2 2-214, looked up)
chain: GAAHSASEEVRELEGKTGFSSDQIEQLHRRFKQLSGDQPTIRKENFNNVPDLELNPIRSKIVRAFFDNRNLRKGPSGLADEINFEDFLTIMSYFRPIDTTMDEEQVELSRKEKLRFLFHMYDSDSDGRITLEEYRNVVEELLSGNPHIEKESARSIADGAMMEAASVCMGQMEPDQVYEGITFEDFLKIWQGIDIETKMHVRFLNMETMALCH
B4: human calcineurin B homologous protein 3 (CHP3), hexa-histidine tagged (natural protein, UniProt Q96BS2 2-214, looked up)
chain: B3 chain
modifications: fluorescent label NT647, randomly attached, labelling efficiency about 30% (MST only)

Details in all cases: both partners purified
For assay [1], the target named is B3. Kind of assay: ITC; CHP3 (nominal 200 uM) in the syringe injected into MBP-CBD (nominal 20 uM) in the cell, 57 injections, 25 °C; 20 mM HEPES, 150 mM NaCl, 10 mM MgCl2, 5 mM TCEP, pH 7.2; biological triplicates, raw data: each data set fitted freely (KD, dH, n, offset). (In general: Isothermal titration calorimetry measures the heat released or taken up as one component is titrated into another.)

Assay [2] has as its target B3. Kind of assay: ITC; the same titrations (CHP3 in the syringe, MBP-CBD in the cell, 25 °C, ITC buffer pH 7.2) refitted one by one after the triple-shift correction: corrected active concentrations of CHP3 and MBP-CBD, dH fixed to the average of the raw fits, n = 1 by the correction.
Assay [3] deals with B4. Kind of assay: MST; NT647-labelled CHP3 at 10 nM, MBP-CBD titrated in 16 steps of 1:1 dilution; 20 mM HEPES, 150 mM NaCl, 0.05% Tween-20, 10 mM MgCl2, 5 mM TCEP, pH 7.2; 22 °C; bimolecular binding model; three biological replicates of five technical replicates each.
Assay [4] addresses B4. Kind of assay: ITC; 200 uM CHP3 in the syringe injected into 20 uM MBP-CBD in the cell, 57 injections, 25 °C; 20 mM HEPES, 150 mM NaCl, 10 mM MgCl2, 5 mM TCEP, pH 7.2; global fit of three concentration-corrected biological replicates assuming n = 1.
Assay [5] has as its target B1. Kind of assay: ITC; CHP3 (nominal 200 uM) in the syringe injected into MBP-CBD (nominal 20 uM) in the cell, 57 injections, 25 °C; 20 mM HEPES, 150 mM NaCl, 10 mM MgCl2, 5 mM TCEP, pH 7.2; biological triplicates, raw data: each data set fitted freely (KD, dH, n, offset).
The target of assay [6] is B1. Kind of assay: ITC; the same titrations (CHP3 in the syringe, MBP-CBD in the cell, 25 °C, ITC buffer pH 7.2) refitted one by one after the triple-shift correction: corrected active concentrations of CHP3 and MBP-CBD, dH fixed to the average of the raw fits, n = 1 by the correction.
The target of assay [7] is B2. Kind of assay: SEC; analytical SEC, Superdex 200 10/300 GL; 20 uM samples mixed equimolar (250 ul each); 20 mM HEPES, 150 mM NaCl, 1 mM TCEP, pH 7.2; peak fractions checked by SDS-PAGE.

With B1, the Kd in assay [1] was 3 nM and 2.4 nM and 4.5 nM and 3.3 nM; in assay [2], 3.1 nM and 2.1 nM and 5.1 nM and 3.4 nM. With B2, the Kd was 62.7 nM and 54.8 nM and 49 nM and 55.5 nM in assay [3]; 3 nM in assay [4].

For the molecule B3, the “stoichiometry N” value was 0.97 and 1.2 and 1.1 and 1.09 in assay [5]; 1 in assay [6]. Turning to B4, in assay [7], the “stoichiometry N” value amounted to 1.
